Results taken from article PMC2225448.
Square brackets hold non-standard residues; d marks the D form. Ends that are not written are not given here. pY = N[C@@H](Cc1ccc(OP(=O)(O)O)cc1)C(=O)O

Target: SOCS4-ElonginC-ElonginB ternary complex (human), Q8WXH5
Assay: ITC; 0.3-0.4 mM peptide injected into 15 μM protein; 50 mM HEPES (pH 7.5), 150 mM NaCl, 1 mM DTT, 20°C; blank titrations subtracted; single binding site model
Conditions: remark: other sources report otherwise

SOCS4-ElonginC-ElonginB ternary complex (human), Q8WXH5, sequence (Q8WXH5 274-437, chain 1 of 3): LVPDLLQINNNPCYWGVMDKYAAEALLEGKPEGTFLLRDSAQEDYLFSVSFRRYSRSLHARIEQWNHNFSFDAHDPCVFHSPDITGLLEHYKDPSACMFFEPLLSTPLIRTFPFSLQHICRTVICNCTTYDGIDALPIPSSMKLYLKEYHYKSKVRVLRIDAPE
SOCS4-ElonginC-ElonginB ternary complex (human), Q8WXH5, sequence (Q15369 17-112, chain 2 of 3, further chain): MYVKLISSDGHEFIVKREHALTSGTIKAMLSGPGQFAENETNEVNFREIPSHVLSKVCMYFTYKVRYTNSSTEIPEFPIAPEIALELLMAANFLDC
SOCS4-ElonginC-ElonginB ternary complex (human), Q8WXH5, sequence (Q15370 whole entry, chain 3 of 3, further chain): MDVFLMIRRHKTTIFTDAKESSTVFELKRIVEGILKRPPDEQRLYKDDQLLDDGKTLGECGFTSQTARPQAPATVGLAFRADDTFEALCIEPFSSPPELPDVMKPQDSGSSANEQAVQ

With ASFE[pY]TILDPS [EpoR pY402 peptide ASFE(pY)TILDPS] as the binder, how does the Ka read?
Its Ka is 130000 M⁻¹.

What about the Kd of the same binder?
Its Kd is 7.7 µM.

And the dH?
The dH was -14.5 kcal/mol.

And the stoichiometry N?
Its stoichiometry N is 0.71.
